Source: IntAct's records for PubMed 19197237

B1: Peroxisomal biogenesis factor 19 (Homo sapiens), P40855 (parent)
chain: MAAAEEGCSVGAEADRELEELLESALDDFDKAKPSPAPPSTTTAPDASGPQKRSPGDTAKDALFASQEKFFQELFDSELASQATAEFEKAMKELAEEEPHLVEQFQKLSEAAGRVGSDMTSQQEFTSCLKETLSGLAKNATDLQNSSMSEEELTKAMEGLGMDEGDGEGNILPIMQSIMQNLLSKDVLYPSLKEITEKYPEWLQSHRESLPPEQFEKYQEQHSVMCKICEQFEAETPTDSETTQKARFEMVLDLMQQLQDLGHPPKELAGEMPPGLNFDLDALNLSGPPGASGEQCLIM
B2: Peroxisomal membrane protein PEX14 (Homo sapiens), O75381 (parent)
chain: MASSEQAEQPSQPSSTPGSENVLPREPLIATAVKFLQNSRVRQSPLATRRAFLKKKGLTDEEIDMAFQQSGTAADEPSSLGPATQVVPVQPPHLISQPYSPAGSRWRDYGALAIIMAGIAFGFHQLYKKYLLPLILGGREDRKQLERMEAGLSELSGSVAQTVTQLQTTLASVQELLIQQQQKIQELAHELAAAKATTSTNWILESQNINELKSEINSLKGLLLNRRQFPPSPSAPKIPSWQIPVKSPSPSSPAAVNHHSSSDISPVSNESTSSSPGKEGHSPEGSTVTYHLLGPQEEGEGVVDVKGQVRMEVQGEEEKREDKEDEEDEEDDDVSHVDEEDCLGVQREDRRGGDGQINEQVEKLRRPEGASNESERD
partner: B1 chain

Variants of: B1
Settings: with pex14_human PEX14, O75381
F71A was tested, and the “effect of a mutation on the interaction” value was “disrupting interaction”.

Variants of: B1
Settings: with pex14_human PEX14, O75381
Remark: another data set of the same source
For F75A, the “effect of a mutation on the interaction” value was “disrupting interaction”.

Variants of: B1
Settings: with pex14_human PEX14, O75381
Remark: another data set of the same source
L74A was tested, and the “effect of a mutation on the interaction” value was “disrupting interaction”.

Variants of: B1
Settings: with pex14_human PEX14, O75381
Remark: another data set of the same source
For F70A, the “effect of a mutation on the interaction” value was “disrupting interaction”.

Variants of: B1
Settings: with pex14_human PEX14, O75381
Remark: another data set of the same source
In the case of E68A, the “effect of a mutation on the interaction” value is reported as “disrupting interaction”.

Variants of: B2
Settings: with pex19_human PEX19, P40855
In the case of F52W, the “effect of a mutation on the interaction” value is reported as “disrupting interaction”.

Variants of: B2
Settings: with pex19_human PEX19, P40855
Remark: another data set of the same source
For K56E, the “effect of a mutation on the interaction” value was “decreasing interaction”.

Variants of: B2
Settings: with pex19_human PEX19, P40855
Remark: another data set of the same source
In the case of R49E, the “effect of a mutation on the interaction” value is reported as “decreasing interaction”.
